This passage reports response (absorbance results from article PMC6238537.

What all share (experiment): solid-phase binding assay
For assay [1], the target named is recombinant integrin αvβ5, P06756;P18084. To be noted: read off a plot.
Assay [2] concerns the target recombinant integrin αvβ3, P06756;P05106. To be noted: read off a plot.
Assay [3] addresses recombinant integrin α9β1, Q13797;P05556. To be noted: parent: est. 0.11; read off a plot.

recombinant integrin α9β1, Q13797;P05556, sequence (chain, as listed by the source, chain 1 of 2): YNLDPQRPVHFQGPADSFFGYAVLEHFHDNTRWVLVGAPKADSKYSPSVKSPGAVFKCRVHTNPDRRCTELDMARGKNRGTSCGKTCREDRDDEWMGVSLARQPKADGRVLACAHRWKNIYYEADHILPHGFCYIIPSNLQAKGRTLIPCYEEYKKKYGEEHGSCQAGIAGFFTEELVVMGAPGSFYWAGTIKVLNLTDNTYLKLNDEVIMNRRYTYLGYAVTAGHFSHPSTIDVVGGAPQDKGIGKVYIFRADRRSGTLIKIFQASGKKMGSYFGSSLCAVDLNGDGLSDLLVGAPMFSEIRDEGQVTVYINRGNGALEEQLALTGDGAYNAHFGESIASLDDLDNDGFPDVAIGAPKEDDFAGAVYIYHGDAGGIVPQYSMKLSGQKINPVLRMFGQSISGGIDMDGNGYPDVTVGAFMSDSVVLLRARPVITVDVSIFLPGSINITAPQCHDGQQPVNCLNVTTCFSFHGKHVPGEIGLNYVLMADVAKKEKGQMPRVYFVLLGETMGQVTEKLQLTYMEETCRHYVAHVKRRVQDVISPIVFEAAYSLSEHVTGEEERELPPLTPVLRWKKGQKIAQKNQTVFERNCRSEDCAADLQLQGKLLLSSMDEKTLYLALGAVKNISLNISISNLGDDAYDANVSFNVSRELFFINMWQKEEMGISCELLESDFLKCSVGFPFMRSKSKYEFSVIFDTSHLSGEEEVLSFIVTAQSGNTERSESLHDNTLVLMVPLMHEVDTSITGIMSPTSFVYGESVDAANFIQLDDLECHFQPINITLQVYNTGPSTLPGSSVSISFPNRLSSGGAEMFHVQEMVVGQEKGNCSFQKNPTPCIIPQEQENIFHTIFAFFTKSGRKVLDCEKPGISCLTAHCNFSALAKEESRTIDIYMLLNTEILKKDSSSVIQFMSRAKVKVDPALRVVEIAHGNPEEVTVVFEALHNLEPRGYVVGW
recombinant integrin α9β1, Q13797;P05556, sequence (chain, as listed by the source, chain 2 of 2): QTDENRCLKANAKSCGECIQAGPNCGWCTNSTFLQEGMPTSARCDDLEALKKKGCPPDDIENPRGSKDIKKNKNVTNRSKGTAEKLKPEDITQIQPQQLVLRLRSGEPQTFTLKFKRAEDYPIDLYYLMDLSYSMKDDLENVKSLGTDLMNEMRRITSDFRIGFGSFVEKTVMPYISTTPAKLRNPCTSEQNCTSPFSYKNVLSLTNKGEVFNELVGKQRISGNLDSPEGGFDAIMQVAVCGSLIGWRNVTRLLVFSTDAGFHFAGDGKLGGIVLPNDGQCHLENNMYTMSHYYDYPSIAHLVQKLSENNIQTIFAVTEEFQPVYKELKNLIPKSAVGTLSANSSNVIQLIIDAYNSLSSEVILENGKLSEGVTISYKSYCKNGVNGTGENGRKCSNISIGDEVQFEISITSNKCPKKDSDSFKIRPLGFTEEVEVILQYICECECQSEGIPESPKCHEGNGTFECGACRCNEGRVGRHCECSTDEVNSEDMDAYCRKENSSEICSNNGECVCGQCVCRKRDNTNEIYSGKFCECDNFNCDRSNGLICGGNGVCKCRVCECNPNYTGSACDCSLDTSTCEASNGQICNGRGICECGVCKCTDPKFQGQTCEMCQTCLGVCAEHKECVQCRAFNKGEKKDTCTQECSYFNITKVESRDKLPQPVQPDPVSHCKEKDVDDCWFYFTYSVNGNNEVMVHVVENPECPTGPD

As to “recombinant human laminin-111 (from UniProt P25391;P07942;P11047) γ1:EQ (γ1C-Glu to Gln)”, the response (absorbance at 490 nm) in assay [1] (parent: est. 0.26) is 0.27; in assay [2] (parent: est. 0.15), 0.17.
Turning to “recombinant human laminin-511, O15230;P07942;P11047 γ1:EQ (γ1C-Glu to Gln)”, the values for the response (absorbance at 490 nm) in assay [3], in assay [1] (parent: est. 1.4) and in assay [2] (parent: est. 0.53) were 0.13, 1.6 and 0.62, respectively.
